The assay deals with Nlgn1, Q99K10-1.
Nlgn1, Q99K10-1, sequence (Q99K10 whole entry): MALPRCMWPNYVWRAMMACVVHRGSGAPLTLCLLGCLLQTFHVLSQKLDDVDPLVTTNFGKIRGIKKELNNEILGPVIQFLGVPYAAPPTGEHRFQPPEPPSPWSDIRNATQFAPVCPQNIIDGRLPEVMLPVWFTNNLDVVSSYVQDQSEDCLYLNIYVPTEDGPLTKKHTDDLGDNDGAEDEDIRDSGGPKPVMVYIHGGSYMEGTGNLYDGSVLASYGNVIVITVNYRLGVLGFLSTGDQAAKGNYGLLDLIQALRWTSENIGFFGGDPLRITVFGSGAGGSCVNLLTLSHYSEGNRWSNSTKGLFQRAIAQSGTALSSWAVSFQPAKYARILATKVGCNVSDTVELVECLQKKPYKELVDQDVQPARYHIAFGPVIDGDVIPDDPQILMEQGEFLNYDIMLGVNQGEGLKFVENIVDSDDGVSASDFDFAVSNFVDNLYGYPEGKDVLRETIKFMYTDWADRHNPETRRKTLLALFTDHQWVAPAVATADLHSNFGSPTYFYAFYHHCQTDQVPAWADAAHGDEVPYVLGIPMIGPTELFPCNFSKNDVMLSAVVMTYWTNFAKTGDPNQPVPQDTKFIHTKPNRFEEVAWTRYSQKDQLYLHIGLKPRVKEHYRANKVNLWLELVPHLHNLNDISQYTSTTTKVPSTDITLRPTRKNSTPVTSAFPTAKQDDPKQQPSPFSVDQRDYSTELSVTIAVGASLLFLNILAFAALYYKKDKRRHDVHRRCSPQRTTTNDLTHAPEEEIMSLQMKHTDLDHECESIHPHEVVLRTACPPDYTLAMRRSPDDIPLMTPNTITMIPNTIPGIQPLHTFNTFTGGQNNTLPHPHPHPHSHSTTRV

Neurexin-1-beta (Homo sapiens), P58400-1 L240R, sequence (P58400 other isoform, or with tags, fused parts or gaps L240R): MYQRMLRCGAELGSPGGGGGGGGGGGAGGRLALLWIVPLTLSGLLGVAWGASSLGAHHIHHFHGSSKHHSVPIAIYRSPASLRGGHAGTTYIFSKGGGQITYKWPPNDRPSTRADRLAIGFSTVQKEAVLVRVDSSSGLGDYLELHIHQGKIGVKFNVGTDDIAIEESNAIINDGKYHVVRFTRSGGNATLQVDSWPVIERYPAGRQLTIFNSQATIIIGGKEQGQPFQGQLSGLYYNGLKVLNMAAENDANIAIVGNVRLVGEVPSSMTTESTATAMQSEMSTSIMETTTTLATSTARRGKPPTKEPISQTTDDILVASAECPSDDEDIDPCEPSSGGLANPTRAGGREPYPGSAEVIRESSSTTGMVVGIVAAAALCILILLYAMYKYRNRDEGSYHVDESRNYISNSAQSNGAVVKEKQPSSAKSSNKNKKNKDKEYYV
Neurexin-1-beta (Homo sapiens), P58400-1 S111R, sequence (P58400 other isoform, or with tags, fused parts or gaps S111R): as the sequence (P58400 other isoform, or with tags, fused parts or gaps L240R) above
Neurexin-1-beta (Homo sapiens), P58400-1 L139R, sequence (P58400 other isoform, or with tags, fused parts or gaps L139R): as the sequence (P58400 other isoform, or with tags, fused parts or gaps L240R) above
Neurexin-1-beta (Homo sapiens), P58400-1 D141S, sequence (P58400 other isoform, or with tags, fused parts or gaps D141S): as the sequence (P58400 other isoform, or with tags, fused parts or gaps L240R) above

With “Neurexin-1-beta (Homo sapiens), P58400-1 S111R”, the “effect of a mutation on the interaction” value was “disrupting interaction”. With “Neurexin-1-beta (Homo sapiens), P58400-1 L139R”, the “effect of a mutation on the interaction” value is on record as “disrupting interaction”. Regarding “Neurexin-1-beta (Homo sapiens), P58400-1 L240R”, the “effect of a mutation on the interaction” value is recorded as “disrupting interaction”. The same measure for “Neurexin-1-beta (Homo sapiens), P58400-1 D141S”: “disrupting interaction”.

The record behind these values is IntAct's records for PubMed 18084303.
